According to patent publication US20060172940:

Molecular target: T1, synthetic full length mucocidin peptide (46-mer)
T1 chain: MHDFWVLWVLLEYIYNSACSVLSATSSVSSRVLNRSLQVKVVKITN

B1: guinea pig liver transglutaminase (protein)
chain: AEDLILERCDLQLEVNGRDHRTADLCRERLVLRRGQPFWLTLHFEGRGYEAGVDTLTFNAVTGPDPSEEAGTMARFSLSSAVEGGTWSASAVDQQDSTVSLLLSTPADAPIGLYRLSLEASTGYQGSSFVLGHFILLYNPRCPADAVYMDSDQERQEYVLTQQGFIYQGSAKFINGIPWNFGQFEDGILDICLMLLDTNPKFLKNAGQDCSRRSRPVYVGRVVSAMVNCNDDQGVLQGRWDNNYSDGVSPMSWIGSVDILRRWKDYGCQRVKYGQCWVFAAVACTVLRCLGIPTRVVTNFNSAHDQNSNLLIEYFRNESGEIEGNKSEMIWNFHCWVESWMTRPDLEPGYEGWQALDPTPQEKSEGTYCCGPVPVRAIKEGHLNVKYDAPFVFAEVNADVVNWIRQKDGSLRKSINHLVVGLKISTKSVGRDEREDITHTYKYPEGSEEEREAFVRANHLNKLATKEEAQEETGVAMRIRVGQNMTMGSDFDIFAYITNGTAESHECQLLLCARIVSYNGVLGPVCSTNDLLNLTLDPFSENSIPLHILYEKYGDYLTESNLIKVRGLLIEPAANSYVLAERDIYLENPEIKIRVLGEPKQNRKLIAEVSLKNPLPVPLLGCIFTVEGAGLTKDQKSVEVPDPVEAGEQAKVRVDLLPTEVGLHKLVVNFECDKLKAVKGYRNVIIGPA
  Transglutaminase catalyzed monodansylcadaverine (MDC) incorporation into mucocidin: The time-dependent uptake of MDC into mucocidin (FIG. 4C) was detected only in the presence of Ca^++ but not in its absence
